These results are taken from PMC12013264 (mSystems, 2025).

In brackets after ≈: the same amount, converted by molar mass. Like-named read-outs stand apart in the source and are kept apart here. A value given as a limit tells only on which side of the number the result lay.

The target in one series is T1, KPC-3 (Klebsiella pneumoniae, UniProt Q93DC4).
T1 construct: gene bla; signal peptide (1-29) removed, KPC30-293 in pET28a, E. coli BL21 Rosetta-gami DE3, His-tag cut with thrombin
In words: isothermal titration calorimetry. It counts as binding. An excerpt:
isothermal titration calorimetry on KPC-3
A general note: Isothermal titration calorimetry measures the heat released or taken up as one component is titrated into another.

The test system of a further series is T2, E. coli DH10B.
T2 construct: DH10B empty plasmid control
In words: microbe, parasite or virus in culture. Further details: species or system E. coli DH10B or K. pneumoniae; CLSI standard broth microdilution MIC in triplicate, median values. The following applies: Escherichia coli. An excerpt:
(§1) The blaKPC amplicons (full length) were cloned into the Tn4401a-pET28a plasmid between the BamHI (as the 5′ end upstream) and XbaI (as the 3′ end downstream) restriction sites, which is the opposite direction of conventional induced expression for removing the His-tag expression. This insertion was downstream of the blaKPC Tn4401a promoter. The Tn4401a promoter was inserted between the EcoRI and BamHI sites. KPC expression was achieved by inserting the natural promoter Tn4401a upstream of the blaKPC gene, thus avoiding the use of the pET-28a vector’s T7 promoter and the resulting His-tag fusion. E. coli DH10B strains containing the generated KPCs-Tn4401a-pET28a plasmid underwent antimicrobial susceptibility testing in triplicate using the standard broth microdilution, following the Clinical and Laboratory Standards Institute (CLSI) recommendations (CLSI M100-S34) . Klebsiella pneumoniae expressing KPC-3 and E. coli DH10B containing an empty plasmid served as positive and negative controls, respectively.

Series [1] has as its system T3, E. coli DH10B carrying KPC-2-Tn4401a-pET28a.
T3 construct: DH10B full-length blaKPC-2 under Tn4401a promoter in pET28a
In words: microbe, parasite or virus in culture. As to conditions: Escherichia coli. Also noted: species or system E. coli DH10B or K. pneumoniae; CLSI standard broth microdilution MIC in triplicate, median values.
Excerpt: as §1, with “.” for “. Klebsiella pneumoniae expressing KPC-3 and E. coli DH10B containing an empty plasmid served as positive and negative controls, respectively.”

Series [2] relates to T4, E. coli DH10B carrying KPC-3-Tn4401a-pET28a.
T4 construct: DH10B full-length blaKPC-3 under Tn4401a promoter in pET28a
In words: microbe, parasite or virus in culture. Further details: species or system E. coli DH10B or K. pneumoniae; CLSI standard broth microdilution MIC in triplicate, median values. As to conditions: Escherichia coli.
Excerpt: as §1, with “.” for “. Klebsiella pneumoniae expressing KPC-3 and E. coli DH10B containing an empty plasmid served as positive and negative controls, respectively.”

Series [3] deals with T5, Klebsiella pneumoniae Kpn with KPC-3.
T5 construct: K. pneumoniae producing KPC-3, positive control
Kind of series: microbe, parasite or virus in culture. Further details: species or system E. coli DH10B or K. pneumoniae; CLSI standard broth microdilution MIC in triplicate, median values.

Series [4] deals with CC(C)(O/N=C(\C(=O)N[C@@H]1C(=O)N2C(C(=O)[O-])=C(C[n+]3ccccc3)CS[C@H]12)c1csc(N)n1)C(=O)O. In words: purified protein. The following applies: 100 mM sodium phosphate, pH 7.0, 37 °C.
In series [5] the test system is CCN1CCN(C(=O)N[C@@H](C(=O)N[C@@H]2C(=O)N3[C@@H]2SC(C)(C)[C@@H]3C(=O)O)c2ccccc2)C(=O)C1=O. In words: purified protein. The following applies: 100 mM sodium phosphate, pH 7.0, 37 °C.
In series [6] the test system is CO/N=C(\C(=O)N[C@@H]1C(=O)N2C(C(=O)[O-])=C(C[N+]3(C)CCCC3)CS[C@H]12)c1csc(N)n1. Kind of series: purified protein. As to conditions: 100 mM sodium phosphate, pH 7.0, 37 °C.
In series [7] the test system is C[C@@H](O)[C@H]1C(=O)N2C(C(=O)O)=C(SCCN=CN)C[C@H]12. Kind of series: purified protein. The following applies: 100 mM sodium phosphate, pH 7.0, 37 °C.
Series [8] deals with C[C@@H](O)[C@H]1C(=O)N2C(C(=O)O)=C(S[C@@H]3CN[C@H](C(=O)N(C)C)C3)[C@H](C)[C@H]12. Kind of series: purified protein. As to conditions: 100 mM sodium phosphate, pH 7.0, 37 °C.
Series [9] has as its system Cc1nnc(SCC2=C(C(=O)O)N3C(=O)[C@@H](NC(=O)Cn4cnnn4)[C@H]3SC2)s1. Kind of series: purified protein. The following applies: 100 mM sodium phosphate, pH 7.0, 37 °C.

T1 sequence (Q93DC4 30-293 limits assumed): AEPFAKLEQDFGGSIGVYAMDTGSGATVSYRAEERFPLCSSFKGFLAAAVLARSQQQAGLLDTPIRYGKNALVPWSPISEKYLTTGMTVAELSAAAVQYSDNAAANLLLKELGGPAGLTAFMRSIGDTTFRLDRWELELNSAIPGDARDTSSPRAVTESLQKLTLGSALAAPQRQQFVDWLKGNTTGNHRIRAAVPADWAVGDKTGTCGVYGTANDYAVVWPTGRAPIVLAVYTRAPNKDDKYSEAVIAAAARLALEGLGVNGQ

On KPC-3, `NC(=O)[C@@H]1CC[C@@H]2CN1C(=O)N2OS(=O)(=O)O` [avibactam] returned a Kd of 7.49 nM.

In the case of `C[C@H]1[C@H](NC(=O)/C(=N\OC(C)(C)C(=O)O)c2csc(N)n2)C(=O)N1S(=O)(=O)O` [aztreonam], the MIC in the series on E. coli DH10B (read-out: MIC (mg/L)^a / ATM) was under 0.125 mg/L.

For the compound `Cc1nnc(SCC2=C(C(=O)O)N3C(=O)[C@@H](NC(=O)Cn4cnnn4)[C@H]3SC2)s1` [cefazolin], the MIC in series [1] (read-out: MIC (mg/L)^a / CZO) was 256 mg/L (≈ 563 µM); in series [2] (read-out: MIC (mg/L) ^a / CZO) it was 256 mg/L (≈ 563 µM); in series [3] (read-out: MIC (mg/L)^a / CZO), over 256 mg/L; in the series on E. coli DH10B (read-out: MIC (mg/L)^a / CZO), 2 mg/L (≈ 4.4 µM).

As for `CO/N=C(\C(=O)N[C@@H]1C(=O)N2C(C(=O)[O-])=C(C[N+]3(C)CCCC3)CS[C@H]12)c1csc(N)n1` [cefepime], the MIC is 4 mg/L (≈ 8.32 µM) in series [1] (read-out: MIC (mg/L)^a / FEP), 8 mg/L (≈ 16.6 µM) in [2] (read-out: MIC (mg/L) ^a / FEP), over 256 mg/L in series [3] (read-out: MIC (mg/L)^a / FEP) and under 0.125 mg/L with E. coli DH10B (read-out: MIC (mg/L)^a / FEP).

With `CC(C)(O/N=C(\C(=O)N[C@@H]1C(=O)N2C(C(=O)[O-])=C(C[n+]3ccccc3)CS[C@H]12)c1csc(N)n1)C(=O)O` [ceftazidime], the MIC in series [1] (read-out: MIC (mg/L)^a / CAZ) was 8 mg/L (≈ 14.6 µM); in series [2] (read-out: MIC (mg/L) ^a / CAZ), 64 mg/L (≈ 117 µM); in [3] (read-out: MIC (mg/L)^a / CAZ) it was over 256 mg/L; in the series with E. coli DH10B (read-out: MIC (mg/L)^a / CAZ), 0.25 mg/L (≈ 0.457 µM).

As for `CO/N=C(\C(=O)N[C@@H]1C(=O)N2C(C(=O)O)=C(CSc3nc(=O)c(O)nn3C)CS[C@H]12)c1csc(N)n1` [ceftriaxone], the MIC in the series with E. coli DH10B (read-out: MIC (mg/L)^a / CRO) was under 0.125 mg/L.

In the case of `CO/N=C(\C(=O)N[C@@H]1C(=O)N2C(C(=O)O)=C(COC(N)=O)CS[C@H]12)c1ccco1` [cefuroxime], the MIC is over 256 mg/L in series [1] (read-out: MIC (mg/L)^a / CXM), over 256 mg/L in series [2] (read-out: MIC (mg/L) ^a / CXM), over 256 mg/L in series [3] (read-out: MIC (mg/L)^a / CXM) and 4 mg/L (≈ 9.43 µM) with E. coli DH10B (read-out: MIC (mg/L)^a / CXM).

As to `C[C@@H](O)[C@H]1C(=O)N2C(C(=O)O)=C(SCCN=CN)C[C@H]12` [imipenem], the MIC in series [1] (read-out: MIC (mg/L)^a / IPM) is 1 mg/L (≈ 3.34 µM); in series [2] (read-out: MIC (mg/L) ^a / IPM) it was 2 mg/L (≈ 6.68 µM); in series [3] (read-out: MIC (mg/L)^a / IPM), 16 mg/L (≈ 53.4 µM); with E. coli DH10B (read-out: MIC (mg/L)^a / IPM) it was 0.25 mg/L (≈ 0.835 µM).

As to `C[C@@H](O)[C@H]1C(=O)N2C(C(=O)O)=C(S[C@@H]3CN[C@H](C(=O)N(C)C)C3)[C@H](C)[C@H]12` [meropenem], the MIC was 0.25 mg/L (≈ 0.652 µM) in [1] (read-out: MIC (mg/L)^a / MEM), 0.25 mg/L (≈ 0.652 µM) in series [2] (read-out: MIC (mg/L) ^a / MEM), over 4 mg/L in [3] (read-out: MIC (mg/L)^a / MEM) and under 0.0312 mg/L with E. coli DH10B (read-out: MIC (mg/L)^a / MEM).

In the case of `CCN1CCN(C(=O)N[C@@H](C(=O)N[C@@H]2C(=O)N3[C@@H]2SC(C)(C)[C@@H]3C(=O)O)c2ccccc2)C(=O)C1=O` [piperacillin], the MIC is over 256 mg/L in series [1] (read-out: MIC (mg/L)^a / PIP), over 256 mg/L in series [2] (read-out: MIC (mg/L) ^a / PIP), over 256 mg/L in series [3] (read-out: MIC (mg/L)^a / PIP) and 2 mg/L (≈ 3.86 µM) in the series with E. coli DH10B (read-out: MIC (mg/L)^a / PIP).

On to KPC-2 (Klebsiella pneumoniae), for which the Km was found to be 590 ± 48 µM in series [4]; 793 ± 34 µM in series [5]; 310 ± 23 µM in [6]; 98 ± 9 µM in [7]; 16 ± 1 µM in [8]; 110 ± 3 µM in series [9]. The turnover number (kcat) in series [4] worked out at 3.27 ± 0.27 s⁻¹; in series [5], 7.7 ± 0.5 s⁻¹; in [6], 4.7 ± 0.1 s⁻¹; in series [7], 28 ± 2 s⁻¹; in series [8], 8 ± 0.5 s⁻¹; in series [9] it was 65 ± 5 s⁻¹. The kcat/Km in [4] was determined as 5500 ± 400 M⁻¹ s⁻¹; in [5], 9700 ± 900 M⁻¹ s⁻¹; in [6], 15000 ± 1200 M⁻¹ s⁻¹; in [7] it was 290000 ± 10000 M⁻¹ s⁻¹; in [8], 500000 ± 50000 M⁻¹ s⁻¹; in series [9] it was 590000 ± 41000 M⁻¹ s⁻¹.

As for KPC-3 (Klebsiella pneumoniae), the Km is 233 ± 19 µM in [4]; 1,097 ± 84 μM in series [5]; 512 ± 48 µM in series [6]; 64 ± 3 µM in series [7]; 24 ± 1 µM in series [8]; 368 ± 16 µM in series [9]. Also, the kcat in [4] is 2.7 ± 0.2 s⁻¹; in series [5] it was 5.2 ± 0.1 s⁻¹; in series [6] it was 4.5 ± 0.3 s⁻¹; in [7], 33 ± 0.7 s⁻¹; in series [8] it was 5.7 ± 0.4 s⁻¹; in series [9] it was 61 ± 2 s⁻¹. The kcat/Km in series [4] was determined as 11000 ± 1200 M⁻¹ s⁻¹; in series [5], 4800 ± 400 M⁻¹ s⁻¹; in series [6], 8900 ± 400 M⁻¹ s⁻¹; in series [7], 520000 ± 34000 M⁻¹ s⁻¹; in [8], 230000 ± 16000 M⁻¹ s⁻¹; in series [9], 170000 ± 13000 M⁻¹ s⁻¹.

As usually defined, the Kd is a measure of binding affinity in units of concentration. Low readings indicate tighter binding, high ones weaker binding. By Km is commonly meant the concentration of substrate that gives half-maximal velocity. As usually defined, the kcat is the maximal rate divided by the concentration of active sites. For orientation: kcat/Km means the turnover number divided by the Michaelis constant.
